Data on three substances can be found in US5846747A, “Method for detecting glucagon-like peptide-1 antagonists and agonists” (Novo Nordisk A/S, priority 1993, dated 1998).

This experiment addresses T1, rat GLP-1 receptor (Rattus norvegicus, UniProt P32301).
T1 construct: expressed in transfected cells; host or cells: COS cells
T1 sequence (P32301 22-463): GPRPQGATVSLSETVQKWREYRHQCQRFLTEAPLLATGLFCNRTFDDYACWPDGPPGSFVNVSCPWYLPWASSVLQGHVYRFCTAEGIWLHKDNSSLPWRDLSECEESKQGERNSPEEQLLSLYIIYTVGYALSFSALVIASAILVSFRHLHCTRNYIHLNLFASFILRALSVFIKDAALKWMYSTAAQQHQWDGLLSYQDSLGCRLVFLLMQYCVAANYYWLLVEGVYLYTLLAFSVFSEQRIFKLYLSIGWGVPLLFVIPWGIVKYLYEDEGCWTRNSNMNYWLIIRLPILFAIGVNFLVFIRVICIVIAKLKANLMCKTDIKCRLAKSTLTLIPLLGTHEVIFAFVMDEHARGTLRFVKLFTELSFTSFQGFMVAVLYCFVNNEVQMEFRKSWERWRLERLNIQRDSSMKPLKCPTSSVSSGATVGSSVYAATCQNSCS
Kind of experiment: Displacement of 125I-GLP-1 binding to COS cells transfected with the rat GLP-1 receptor cDNA. The settings on record: 20 pM 125I-GLP-1, increasing concentrations of cold peptide. In general terms: Loss of bound radioactivity is the signal in a displacement assay; it reports binding, not function.

For “secreting: peptide hormone of related structure (probably secretin)”, the “displacement of GLP-1 binding (in words)” value is on record as “did not displace binding”.
As to vasoactive intestinal peptide [VIP], the “displacement of GLP-1 binding (in words)” value is reported as “did not displace binding”.
For the substance gastric inhibitory peptide [GIP], the “displacement of GLP-1 binding (in words)” value is listed as “did not displace binding”.
